This is an account of results in publication PMC10039067, “Temporal and spatial assembly of inner ear hair cell ankle link condensate through phase separation” (Nature Communications, 2023).

B1: ADGRV1-CT (domain or fragment, UniProt Q8VHN7 6239-6298, looked up)
chain: GSLIADEESQEFDDLIFALKTGAGLSVSDNESGQGSQEGGTLTDSQIVELRRIPIADTHL
notes: ADGRV1 cytoplasmic region, residues 6239-6298 of UniProtKB Q8VHN7; Named Trx-ADGRV1-CT in SEC-MALS; also called Trx-ADGRV1-CT; VLGR1-CT; source: E. coli BL21 (DE3), purified (Ni2+-NTA, size-exclusion chromatography); not shown: Trx, N-terminal, kept
B2: USH2A-CT (domain or fragment)
chain: PSQSQLSHAYSQSSLHRSVSQLMDMADKKVVTEDSLWETIMGHSSGLYVDEEELMNAIKGFSSVTKEHTAFTDTHL
B3: WHRN NTD (domain or fragment, UniProt Q9P202 33-117, looked up)
chain: RLLSANVRQLHQALTALLSEAEREQFTHCLNAYHARRNVFDLVRTLRVLLDSPVKRRLLPMLRLVIPRSDQLLFDQYTAEGLYLP
notes: WHRN N-terminal domain, residues 33-117 of UniProtKB Q9P202; also called N-terminal domain; HHD1; source: E. coli BL21 (DE3), purified (Ni2+-NTA, size-exclusion chromatography)
B4: WHRN NPDZ12 (domain or fragment, UniProt Q9P202 33-377, looked up)
chain: RLLSANVRQLHQALTALLSEAEREQFTHCLNAYHARRNVFDLVRTLRVLLDSPVKRRLLPMLRLVIPRSDQLLFDQYTAEGLYLPATTPYRQPAWGGPDSAGPGEVRLVSLRRAKAHEGLGFSIRGGSEHGVGIYVSLVEPGSLAEKEGLRVGDQILRVNDKSLARVTHAEAVKALKGSKKLVLSVYSAGRIPGGYVTNHIYTWVDPQGRSISPPSGLPQPHGGALRQQEGDRRSTLHLLQGGDEKKVNLVLGDGRSLGLTIRGGAEYGLGIYITGVDPGSEAEGSGLKVGDQILEVNGRSFLNILHDEAVRLLKSSRHLILTVKDVGRLPHARTTVDETKWIAS
notes: WHRN, residues 33-377 (NTD, PDZ1 and PDZ2) of UniProtKB Q9P202; Cloned into pET.32M.3C; Named Trx-WHRN NPDZ12 in SEC-MALS; also called Trx-WHRN NPDZ12; Whirlin; source: E. coli BL21 (DE3), purified (Ni2+-NTA, size-exclusion chromatography); not shown: Trx, N-terminal, kept

The target in series [1] is B4. Description: ITC; MicroCal iTC200, 25 °C; 50 mM tris pH 7.5-8.0, 300 mM NaCl, 1 mM DTT, 1 mM EDTA; cell 20–50 µM, syringe 400–800 µM; one-site binding model.
Another series concerns the target T1, WHRN NTD (UniProt Q9P202 33-117).
T1 chain: B3 chain
Description: ITC. A general note: Isothermal titration calorimetry measures the heat released or taken up as one component is titrated into another.

Series [2] deals with T2, WHRN NPDZ1 (UniProt Q9P202 33-239).
T2 chain: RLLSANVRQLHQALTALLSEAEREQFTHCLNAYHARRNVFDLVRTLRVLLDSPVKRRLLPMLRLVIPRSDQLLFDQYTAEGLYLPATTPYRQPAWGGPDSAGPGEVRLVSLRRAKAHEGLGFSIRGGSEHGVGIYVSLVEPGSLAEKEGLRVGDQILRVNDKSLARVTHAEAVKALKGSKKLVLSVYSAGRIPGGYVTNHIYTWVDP
In words: ITC.

Another series deals with T3, WHRN NPDZ12 R223H (UniProt Q9P202 33-377, R223H).
T3 construct: WHRN, residues 33-377 of UniProtKB Q9P202 with the deafness-related mutation R223H; source: E. coli BL21 (DE3), purified (Ni2+-NTA, size-exclusion chromatography)
T3 sequence (looked up): B4 chain with R191H
Description: ITC; MicroCal iTC200, 25 °C; 50 mM tris pH 7.5-8.0, 300 mM NaCl, 1 mM DTT, 1 mM EDTA; cell 20–50 µM, syringe 400–800 µM; one-site binding model.

The target of the next series is T4, WHRN NPDZ12 A64D (UniProt Q9P202 33-377, A64D).
T4 construct: WHRN, residues 33-377 of UniProtKB Q9P202 with the deafness-related mutation A64D; Mutant made by PCR-based mutagenesis; the ClinVar ids are tied to the mutations by their printed order; source: E. coli BL21 (DE3), purified (Ni2+-NTA, size-exclusion chromatography)
T4 sequence (looked up): B4 chain with A32D
The series is described as above.

A further series deals with T5, WHRN NPDZ12 T110A (UniProt Q9P202 33-377, T110A).
T5 construct: WHRN, residues 33-377 of UniProtKB Q9P202 with the deafness-related mutation T110A; source: E. coli BL21 (DE3), purified (Ni2+-NTA, size-exclusion chromatography)
T5 sequence (looked up): B4 chain with T78A
The description is as above.

Series [3] has as its target B4. In words: SEC-MALS; mixtures, each component around 30 µM; Superose 12 10/300 GL or Superdex 200 increase 10/300 GL; 50 mM tris, 300 mM NaCl, 1 mM DTT, 1 mM EDTA. Background: Size exclusion chromatography separates by hydrodynamic size, large species first.
The next series addresses USH2A-CT (UniProt Q2QI47). Description: SEC-MALS; single proteins at 50 μM; Superose 12 10/300 GL or Superdex 200 increase 10/300 GL; 50 mM tris, 300 mM NaCl, 1 mM DTT, 1 mM EDTA.
For series [4], the target named is T2, WHRN NPDZ1. In words: ITC; MicroCal iTC200, 25 °C; 50 mM tris pH 7.5-8.0, 300 mM NaCl, 1 mM DTT, 1 mM EDTA; cell 20–50 µM, syringe 400–800 µM; one-site binding model.
A further series concerns the target WHRN PDZ1 (UniProt Q9P202). The series is described as above.
Series [5] deals with the molecule itself. In words: SEC-MALS; single proteins at 50 μM; Superose 12 10/300 GL or Superdex 200 increase 10/300 GL; 50 mM tris, 300 mM NaCl, 1 mM DTT, 1 mM EDTA.
The target in the next series is T6, PDZD7 PDZ12 M285R (UniProt E9Q9W7 84-289, M285R).
T6 sequence: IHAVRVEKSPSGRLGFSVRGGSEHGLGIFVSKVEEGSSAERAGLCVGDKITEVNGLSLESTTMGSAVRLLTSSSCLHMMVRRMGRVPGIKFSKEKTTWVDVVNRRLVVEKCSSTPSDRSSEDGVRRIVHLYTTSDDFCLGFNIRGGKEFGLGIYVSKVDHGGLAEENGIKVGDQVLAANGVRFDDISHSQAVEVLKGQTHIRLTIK
In words: ITC.

A further series deals with T7, PDZD7 PDZ12 G228R (UniProt E9Q9W7 84-289, G228R).
T7 sequence: T6 sequence with G145R, R202M
In words: ITC.

In a further series the target is PDZD7 PDZ1 (UniProt E9Q9W7). In words: ITC; MicroCal iTC200, 25 °C; 50 mM tris pH 7.5-8.0, 300 mM NaCl, 1 mM DTT, 1 mM EDTA; cell 20–50 µM, syringe 400–800 µM; one-site binding model.
The next series has as its target PDZD7 PDZ12 (UniProt E9Q9W7). The description is as above.

By Kd is commonly meant the free concentration of one partner at which half of the binding sites on the other are occupied at equilibrium, for simple one-to-one binding. For orientation: stoichiometry N means the number of molecules, sites or subunits per partner or assembly.

Substitutions are numbered along the chain they refer to. Values joined by “and” are separate entries in the source; they are usually repeats but may differ in a detail not shown here. Equal values may be shown once. Read-outs that look alike come from different tables or passages of the source.

Sequence of PDZD7 PDZ1 (E9Q9W7 81-167): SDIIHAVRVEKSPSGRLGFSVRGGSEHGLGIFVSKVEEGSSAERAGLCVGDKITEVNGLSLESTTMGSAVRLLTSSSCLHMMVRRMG

As for “ADGRV1-CT △PBM (from UniProt Q8VHN7 6239-6298) (domain or fragment)”, in the series with WHRN NPDZ12 [1], the Kd was found to be 9.5 µM.
With B1, the Kd with WHRN NTD is 31 µM; with WHRN NPDZ1 [2] it was 9 µM; in the series with WHRN NPDZ12 [1] (both partners purified) it was about 1.4 µM; with WHRN NPDZ12 R223H (both partners purified) it was 3.3 µM; in the series with WHRN NPDZ12 A64D (both partners purified), 0.41 µM; in the series with WHRN NPDZ12 T110A (both partners purified) it was 0.55 µM. Further, the “stoichiometry N” value in the series with WHRN NPDZ12 [3] (both partners purified) is 2 copies per WHRN dimer and 1 copy per WHRN dimer (three proteins mixed).
B2: the Kd came to 19 µM with WHRN NTD, 5.1 µM with WHRN NPDZ1 [4], 1.2 µM in the series with WHRN PDZ1 and 0.68 µM with WHRN NPDZ12 [1]. This molecule also had a stoichiometry N with USH2A-CT of 2.
For the molecule B3, the binding result in [5] is listed as “binds”.
For GHSSGLYVDEEELMNAIKGFSSVTKEHTAFTDTHL (domain or fragment) [USH2A-CT (Short, S)], the Kd with PDZD7 PDZ12 M285R was determined as 8.5 µM; with PDZD7 PDZ12 G228R, 56 µM; in the series with PDZD7 PDZ1, 66 µM; with PDZD7 PDZ12, 15 µM; in the series with WHRN NPDZ12 [1], 2.7 µM; with WHRN NPDZ12 R223H, 4.7 µM. Moreover, the Kd was 5.5 µM with WHRN NPDZ12 A64D and 16 µM in the series with WHRN NPDZ12 T110A. In the series with WHRN NPDZ12 [3], the stoichiometry N (copies per WHRN dimer) was found to be 2. For the same molecule, the stoichiometry N with WHRN NPDZ12 [3] (scale: copy per WHRN dimer) was 1.
In the case of B4, the “stoichiometry N” value in series [5] turned out to be 2.
